T1: human IL-23R (human, UniProt Q5VWK5 24-353, limits assumed)
T1 construct: also called huIL-23R; human interleukin-23R
T1 sequence: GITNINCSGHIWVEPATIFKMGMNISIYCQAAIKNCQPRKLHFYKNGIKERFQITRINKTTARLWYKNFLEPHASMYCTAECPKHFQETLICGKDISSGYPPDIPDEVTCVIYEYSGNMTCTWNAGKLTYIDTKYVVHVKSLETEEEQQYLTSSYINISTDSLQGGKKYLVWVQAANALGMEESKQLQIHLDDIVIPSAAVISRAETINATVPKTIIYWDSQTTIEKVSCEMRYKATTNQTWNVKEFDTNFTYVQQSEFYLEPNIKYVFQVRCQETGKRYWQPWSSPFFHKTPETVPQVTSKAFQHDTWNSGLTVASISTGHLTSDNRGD

T2: biotinylated huIL-23R-IgG (human, UniProt Q5VWK5 24-353, biotinylated)
T2 construct: not shown: human IgG1 Fc
T2 sequence: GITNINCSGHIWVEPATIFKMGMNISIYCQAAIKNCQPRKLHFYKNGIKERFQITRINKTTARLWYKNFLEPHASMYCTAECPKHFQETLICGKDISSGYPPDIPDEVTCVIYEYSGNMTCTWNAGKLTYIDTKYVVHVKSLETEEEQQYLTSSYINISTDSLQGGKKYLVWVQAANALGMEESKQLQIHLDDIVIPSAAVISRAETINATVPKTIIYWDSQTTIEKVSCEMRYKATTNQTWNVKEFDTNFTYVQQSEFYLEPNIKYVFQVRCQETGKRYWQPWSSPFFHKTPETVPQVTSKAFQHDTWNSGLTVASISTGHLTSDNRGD


Tests used:
human IL-23R [1] = target: T1, human IL-23R; assay: KinExA
Method: (§1) The equilibrium dissociation constants (Kd) for anti human IL-23R antibodies are determined using the KinExA. 3000 instrument. Sapidyne Instruments Inc., Boise Id., USA. KinExA uses the principle of the Kinetic Exclusion Assay method based on measuring the concentration of uncomplexed antibody in a mixture of antibody, antigen and antibody-antigen complex. The concentration of free antibody is measured by exposing the mixture to a solid-phase immobilized antigen for a very brief period of time. In practice, this is accomplished by flowing the solution phase antigen-antibody mixture past antigen-coated particles trapped in a flow cell. Data generated by the instrument are analyzed using custom software. Equilibrium constants are calculated using a mathematical theory based on the lowing assumptions: [0177] 1. The binding follows the reversible binding equation for equilibrium: […]
PMMA particles (Sapidyne, Cat No. 440198) are coated with biotinylated IL-23R (or a fragment thereof, such as the extracellular domain) according to Sapidyne “Protocol for coating PMMA particles with biotinylated ligands having short or nonexistent linker arms.” EZ-link TFP PEO-biotin (Pierce, Cat. No. 21219) is used to make biotinylated IL-23R, as per the manufacturer's recommendations (Pierce bulletin 0874).

human IL-23R [2] = target: T1, human IL-23R; assay: BIAcore SPR, antibody immobilised
Method: (§2) BIAcore® label-free interaction analysis system determinations are performed essentially as described at Example 4 of U.S. Patent Application Publication No. 2007/0048315, which is hereby incorporated by reference. Briefly, ligands (anti-IL-23R mAbs) are immobilized on a BIAcore® label-free interaction analysis system CM5 sensor chip using standard amine-coupling procedure. Kinetic constants for the various interactions are determined using BIAevaluation software 3.1. The Kd is determined using the calculated dissociation and association rate constants.
Several sequence variants intended to increase the chemical stability of hu8B10-b were produced to evaluate their effects on binding affinity. Kd values are provided at Table 3. Binding to human IL-23R was determined using the BIAcore® label-free interaction analysis system (surface plasmon resonance), essentially as described in Example 4 (supra). Chimeric forms, designated as “chim,” refers to rat variable domains linked to human IgG1 heavy chain and human kappa light chain constant domains, e.g., as presented at SEQ ID NOs: 16 and 17, respectively, or as at SEQ ID NOs: 22 and 23, respectively. Sequences for heavy and light chain variable domains are provided at FIGS. 1 and 2, and in the Sequence Listing (as described at Table 4). Antibodies incorporate the sequence changes recited in the table (“Variant(s)”) for the respective heavy and light chains. Data arc presented as mean±standard deviation for multiple determinations, and without error estimates for single determinations.

human IL-23R [3] = target: T1, human IL-23R; assay: BIAcore SPR, antibody immobilised; remark: listed apart in the source
Method: as §2

human IL-23R [4] = target: T1, human IL-23R; assay: KinExA, full-length chimeric antibody; original sequence (no N31T)
Method: as §1
PMMA particles (Sapidyne, Cat No. 440198) are coated with biotinylated IL-23R (or a fragment thereof, such as the extracellular domain) according to Sapidyne “Protocol for coating PMMA particles with biotinylated ligands having short or nonexistent linker arms.” EZ-link TFP PEO-biotin (Pierce, Cat. No. 21219) is used to make biotinylated IL-23R, as per the manufacturer's recommendations (Pierce bulletin 0874). […]

[5] = target: T2, biotinylated huIL-23R-IgG; assay: ECL binding assay, Binding (% of w.t.)
Source text: The N31T change was introduced as a result of affinity maturation experiments, as follows. An E. coli expression vector for expression into the periplasmic space was constructed encoding a chimeric Fab fragment of rat antibody 8B10 comprising rat variable domains, a human constant light chain domain (CL) and a human constant heavy chain domain CH1. Mutations were introduced using a QuikChange® site directed mutagenesis kit (Stratagene Inc., LaJolla, Calif., USA). Primers were designed to replace selected positions with either alanine, or by all 20 amino acids, using the NNK codon approach (N includes an equimolar mix of A/G/C/T and K includes only G/T). To reduce background, alanine mutants at each position were used as the template for the randomization step. Unpurified periplasmic extracts were then tested for human IL-23R binding activity using an electrochemiluminescence assay with biotinylated huIL-23R-IgG and goat anti-huFab-Ori-Tag for detection. The area under the curve was used to compare the binding activity of sequence variants to the original parental 8B10 Fab. Data were fitted using GraphPad Prism® 3.0 software (Graphpad Software inc., San Diego, Calif. USA).

Kd (human IL-23R [2]) [nM]	Binder	also measured
0.27	rat anti-human IL-23R antibody 8B10 (antibody, rat IgG2a, V domains shown, also called r8B10) VH: EVKLVESGGGLEQPKGSLKLSCTVSGFDFNSYGMSWVRQAPGKGLDLVADINSKSYNYATYYADSVKDRFTISRDDSQSMVYLEMDNLKTEDTALYYCTVHHSDYFEYWGQGVMVTVSS VL: DIQMTQSPASLSASLGETVSIECLASEDIYNNLAWYQQKPGKSPQLLIYHASSLQDGVPSRFSGSGSGTQYSLKINSLESEDAATYFCLQDSEYPPTFGGGTKLELKR	Kd (human IL-23R [1]): 0.042 nM; Kd (human IL-23R [3]): ~0.3 nM
0.345	chimeric 8B10 full-length antibody (antibody, V domains shown, also called chim8B10) VH: EVKLVESGGGLEQPKGSLKLSCTVSGFDFNSYGMSWVRQAPGKGLDLVADINSKSYNYATYYADSVKDRFTISRDDSQSMVYLEMDNLKTEDTALYYCTVHHSDYFEYWGQGVMVTVSS VL: DIQMTQSPASLSASLGETVSIECLASEDIYNNLAWYQQKPGKSPQLLIYHASSLQDGVPSRFSGSGSGTQYSLKINSLESEDAATYFCLQDSEYPPTFGGGTKLELKR	Kd (human IL-23R [4]): 0.025 nM
–	chimeric 8B10 Fab, VL N31del (Fab, V domains shown, Rat V domains with human CH1 and CL; E. coli periplasmic extract) VH: EVKLVESGGGLEQPKGSLKLSCTVSGFDFNSYGMSWVRQAPGKGLDLVADINSKSYNYATYYADSVKDRFTISRDDSQSMVYLEMDNLKTEDTALYYCTVHHSDYFEYWGQGVMVTVSS VL: DIQMTQSPASLSASLGETVSIECLASEDIYNLAWYQQKPGKSPQLLIYHASSLQDGVPSRFSGSGSGTQYSLKINSLESEDAATYFCLQDSEYPPTFGGGTKLELK	binding result [5]: no binding
–	chimeric 8B10 Fab, VL Y94A (Fab, V domains shown, Rat V domains with human CH1 and CL; E. coli periplasmic extract) VH: EVKLVESGGGLEQPKGSLKLSCTVSGFDFNSYGMSWVRQAPGKGLDLVADINSKSYNYATYYADSVKDRFTISRDDSQSMVYLEMDNLKTEDTALYYCTVHHSDYFEYWGQGVMVTVSS VL: DIQMTQSPASLSASLGETVSIECLASEDIYNNLAWYQQKPGKSPQLLIYHASSLQDGVPSRFSGSGSGTQYSLKINSLESEDAATYFCLQDSEAPPTFGGGTKLELKR	binding result [5]: no binding
0.114	hu8B10-b variant, VH N30D (antibody, V domains shown, also called VH: 8B10-b N30D / VL: 8B10-b) VH: QVQLVESGGGVVQPGRSLRLSCAASGFDFDSYGMSWVRQAPGKGLDLVADINSKSYNYATYYADSVKDRFTISRDNSKNTLYLQMNSLRAEDTAVYYCAVHHSDYFEYWGQGTLVTVSS VL: DIQMTQSPSSLSASVGDRVTITCRASQDIYTNLAWYQQKPGKAPKLLIYHASSLQDGVPSRFSGSGSGTDYTLTISSLQPEDFATYYCLQDSEYPPTFGQGTKVEIKR	–
0.179	hu8B10-b variant, VL D56E (antibody, V domains shown, also called VH: 8B10-b / VL: 8B10-b D56E) VH: QVQLVESGGGVVQPGRSLRLSCAASGFDFNSYGMSWVRQAPGKGLDLVADINSKSYNYATYYADSVKDRFTISRDNSKNTLYLQMNSLRAEDTAVYYCAVHHSDYFEYWGQGTLVTVSS VL: DIQMTQSPSSLSASVGDRVTITCRASQDIYTNLAWYQQKPGKAPKLLIYHASSLQEGVPSRFSGSGSGTDYTLTISSLQPEDFATYYCLQDSEYPPTFGQGTKVEIKR	–
0.168	hu8B10-b variant, VH N30S (antibody, V domains shown, also called VH: 8B10-b N30S / VL: 8B10-b) VH: QVQLVESGGGVVQPGRSLRLSCAASGFDFSSYGMSWVRQAPGKGLDLVADINSKSYNYATYYADSVKDRFTISRDNSKNTLYLQMNSLRAEDTAVYYCAVHHSDYFEYWGQGTLVTVSS VL: DIQMTQSPSSLSASVGDRVTITCRASQDIYTNLAWYQQKPGKAPKLLIYHASSLQDGVPSRFSGSGSGTDYTLTISSLQPEDFATYYCLQDSEYPPTFGQGTKVEIKR	–
0.382	hu8B10-b variant, VH N57S (antibody, V domains shown, also called VH: 8B10-b N57S / VL: 8B10-b) VH: QVQLVESGGGVVQPGRSLRLSCAASGFDFNSYGMSWVRQAPGKGLDLVADINSKSYSYATYYADSVKDRFTISRDNSKNTLYLQMNSLRAEDTAVYYCAVHHSDYFEYWGQGTLVTVSS VL: DIQMTQSPSSLSASVGDRVTITCRASQDIYTNLAWYQQKPGKAPKLLIYHASSLQDGVPSRFSGSGSGTDYTLTISSLQPEDFATYYCLQDSEYPPTFGQGTKVEIKR	–
19.2	hu8B10-b variant, VL N32S (antibody, V domains shown, also called VH: 8B10-b / VL: 8B10-b N32S) VH: QVQLVESGGGVVQPGRSLRLSCAASGFDFNSYGMSWVRQAPGKGLDLVADINSKSYNYATYYADSVKDRFTISRDNSKNTLYLQMNSLRAEDTAVYYCAVHHSDYFEYWGQGTLVTVSS VL: DIQMTQSPSSLSASVGDRVTITCRASQDIYTSLAWYQQKPGKAPKLLIYHASSLQDGVPSRFSGSGSGTDYTLTISSLQPEDFATYYCLQDSEYPPTFGQGTKVEIKR	–
–	hu8B10-b variant, VH N52D (antibody, V domains shown, also called VH: 8B10-b N52D / VL: 8B10-b) VH: QVQLVESGGGVVQPGRSLRLSCAASGFDFNSYGMSWVRQAPGKGLDLVADIDSKSYNYATYYADSVKDRFTISRDNSKNTLYLQMNSLRAEDTAVYYCAVHHSDYFEYWGQGTLVTVSS VL: DIQMTQSPSSLSASVGDRVTITCRASQDIYTNLAWYQQKPGKAPKLLIYHASSLQDGVPSRFSGSGSGTDYTLTISSLQPEDFATYYCLQDSEYPPTFGQGTKVEIKR	binding result (human IL-23R [2]): no binding
0.18	humanized anti-human IL-23R antibody hu8B10-c (antibody, V domains shown, 8B10-b with VL D56S and VH N30S) VH: QVQLVESGGGVVQPGRSLRLSCAASGFDFSSYGMSWVRQAPGKGLDLVADINSKSYNYATYYADSVKDRFTISRDNSKNTLYLQMNSLRAEDTAVYYCAVHHSDYFEYWGQGTLVTVSS VL: DIQMTQSPSSLSASVGDRVTITCRASQDIYTNLAWYQQKPGKAPKLLIYHASSLQSGVPSRFSGSGSGTDYTLTISSLQPEDFATYYCLQDSEYPPTFGQGTKVEIKR	–
0.187	hu8B10-b variant, VL D56S (antibody, V domains shown, also called VH: 8B10-b / VL: 8B10-b D56S) VH: QVQLVESGGGVVQPGRSLRLSCAASGFDFNSYGMSWVRQAPGKGLDLVADINSKSYNYATYYADSVKDRFTISRDNSKNTLYLQMNSLRAEDTAVYYCAVHHSDYFEYWGQGTLVTVSS VL: DIQMTQSPSSLSASVGDRVTITCRASQDIYTNLAWYQQKPGKAPKLLIYHASSLQSGVPSRFSGSGSGTDYTLTISSLQPEDFATYYCLQDSEYPPTFGQGTKVEIKR	–
0.22	hu8B10-b variant, VH N57D (antibody, V domains shown, also called VH: 8B10-b N57D / VL: 8B10-b) VH: QVQLVESGGGVVQPGRSLRLSCAASGFDFNSYGMSWVRQAPGKGLDLVADINSKSYDYATYYADSVKDRFTISRDNSKNTLYLQMNSLRAEDTAVYYCAVHHSDYFEYWGQGTLVTVSS VL: DIQMTQSPSSLSASVGDRVTITCRASQDIYTNLAWYQQKPGKAPKLLIYHASSLQDGVPSRFSGSGSGTDYTLTISSLQPEDFATYYCLQDSEYPPTFGQGTKVEIKR	–
0.444	hu8B10-b variant, VH N52S (antibody, V domains shown, also called VH: 8B10-b N52S / VL: 8B10-b) VH: QVQLVESGGGVVQPGRSLRLSCAASGFDFNSYGMSWVRQAPGKGLDLVADISSKSYNYATYYADSVKDRFTISRDNSKNTLYLQMNSLRAEDTAVYYCAVHHSDYFEYWGQGTLVTVSS VL: DIQMTQSPSSLSASVGDRVTITCRASQDIYTNLAWYQQKPGKAPKLLIYHASSLQDGVPSRFSGSGSGTDYTLTISSLQPEDFATYYCLQDSEYPPTFGQGTKVEIKR	–

Reference: patent US20110158992A1 (SCHERING, published 2011)
